# Source: patent publication US20240301049A1 (Ablynx, published 2024)
# Several values for one entry are separate records, joined by “and”; a condition that tells them apart may be missing. Identical values can stand only once.
# T1: human IL27 (human, UniProt Q8NEV9 29-243; Q14213 21-229)
# T1 sequence (looked up) 1: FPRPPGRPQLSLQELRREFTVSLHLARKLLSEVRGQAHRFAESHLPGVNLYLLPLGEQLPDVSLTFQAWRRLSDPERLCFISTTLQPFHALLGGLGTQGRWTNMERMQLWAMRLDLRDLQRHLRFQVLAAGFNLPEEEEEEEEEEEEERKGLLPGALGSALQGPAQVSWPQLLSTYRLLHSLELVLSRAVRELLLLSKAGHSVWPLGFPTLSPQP
# T1 sequence (looked up) 2: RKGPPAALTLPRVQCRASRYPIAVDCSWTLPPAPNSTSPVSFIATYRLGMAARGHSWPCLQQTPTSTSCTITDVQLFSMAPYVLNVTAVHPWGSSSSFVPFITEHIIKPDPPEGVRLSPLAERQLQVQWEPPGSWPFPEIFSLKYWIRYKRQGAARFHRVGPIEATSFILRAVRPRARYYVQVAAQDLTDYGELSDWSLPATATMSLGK
# T2: human TL-1A (human, UniProt O95150 72-251)
# T2 construct: also called hTL-1A
# T2 sequence (looked up): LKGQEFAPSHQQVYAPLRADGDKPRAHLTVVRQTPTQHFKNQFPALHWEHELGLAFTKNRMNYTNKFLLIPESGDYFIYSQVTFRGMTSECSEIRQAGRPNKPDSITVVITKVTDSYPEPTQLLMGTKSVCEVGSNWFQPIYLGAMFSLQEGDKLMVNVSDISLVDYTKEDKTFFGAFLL
# T3: human CD40L (human, UniProt P29965 113-261, limits assumed)
# T3 sequence (looked up): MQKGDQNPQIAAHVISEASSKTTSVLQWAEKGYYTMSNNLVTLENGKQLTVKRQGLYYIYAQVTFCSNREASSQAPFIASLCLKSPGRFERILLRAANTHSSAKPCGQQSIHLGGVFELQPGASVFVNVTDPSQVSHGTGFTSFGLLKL
# T4: human TNFβ (human, UniProt P01374 35-205)
# T4 construct: the result sentence prints TNF; also called hTNFβ
# T4 sequence (looked up): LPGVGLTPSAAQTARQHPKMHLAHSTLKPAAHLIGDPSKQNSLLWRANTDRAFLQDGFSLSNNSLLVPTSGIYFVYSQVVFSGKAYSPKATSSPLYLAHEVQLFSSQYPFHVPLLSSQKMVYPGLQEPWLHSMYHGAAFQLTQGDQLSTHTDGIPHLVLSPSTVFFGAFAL
# T5: human IL23 (human, UniProt Q9NPF7 20-189; P29460 23-328)
# T5 sequence (looked up) 1: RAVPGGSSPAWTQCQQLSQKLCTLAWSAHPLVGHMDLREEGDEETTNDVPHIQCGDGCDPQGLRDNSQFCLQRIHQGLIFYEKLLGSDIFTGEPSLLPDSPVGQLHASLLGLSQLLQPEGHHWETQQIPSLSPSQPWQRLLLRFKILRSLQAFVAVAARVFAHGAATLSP
# T5 sequence (looked up) 2: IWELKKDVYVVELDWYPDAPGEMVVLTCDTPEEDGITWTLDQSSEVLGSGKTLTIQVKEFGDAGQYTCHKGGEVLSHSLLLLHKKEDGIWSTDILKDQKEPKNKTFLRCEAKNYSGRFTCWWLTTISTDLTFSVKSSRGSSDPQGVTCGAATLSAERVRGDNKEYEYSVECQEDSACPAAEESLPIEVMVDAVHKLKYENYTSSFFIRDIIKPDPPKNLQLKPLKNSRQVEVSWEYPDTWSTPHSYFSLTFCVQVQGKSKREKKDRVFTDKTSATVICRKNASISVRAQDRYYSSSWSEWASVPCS
# T6: human CNTF (human, UniProt P26441 2-200)
# T6 construct: also called ciliary neurotrophic factor
# T6 sequence (looked up): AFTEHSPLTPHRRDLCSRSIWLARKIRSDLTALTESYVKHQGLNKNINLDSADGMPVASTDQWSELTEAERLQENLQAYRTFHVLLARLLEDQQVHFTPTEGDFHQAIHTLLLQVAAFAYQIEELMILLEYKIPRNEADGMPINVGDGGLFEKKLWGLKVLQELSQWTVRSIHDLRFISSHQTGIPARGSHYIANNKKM
# T7: cyno IL-6 (cynomolgus monkey, UniProt P79341 28-212, limits assumed)
# T7 sequence (looked up): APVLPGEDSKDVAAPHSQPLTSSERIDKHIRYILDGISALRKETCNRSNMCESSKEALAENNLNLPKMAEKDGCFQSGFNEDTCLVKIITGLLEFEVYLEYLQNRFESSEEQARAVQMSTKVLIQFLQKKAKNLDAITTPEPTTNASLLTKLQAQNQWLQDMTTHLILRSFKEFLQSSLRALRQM
# B1: F027201062 (bispecific antibody)
# chain: DVQLVESGGGVVQPGGSLRLSCAASGRTFSNYAMAWFRQAPGKEREFVAVISYAGGRTYYADSVKGRFTISRDNAKNTVYLQMNSLRPEDTALYYCAAVDSPLIATHPRGYDYWGQGTLVTVSSGGGGSGGGSEVQLVESGGGVVQPGGSLRLSCAASGFTFRSFGMSWVRQAPGKGPEWVSSISGSGSDTLYADSVKGRFTISRDNSKNTLYLQMNSLRPEDTALYYCTIGGSLSRSSQGTLVTVSSGGGGSGGGSEVQLVESGGGVVQPGGSLRLSCAASGFTLAYYAIGWFRQAPGKEREGVSCISGSVGTTYYADSVKGRFTISRDNAKNTVYLQMNSLRPEDTALYYCVRSSWFDCGVQGRDLGNEYDYRGQGTLVTVSSGGGGSGGGSEVQLVESGGGVVQPGGSLRLSCTASGFTFSTADMGWFRQAPGKGREFVARISGIDGTTYYDEPVKGRFTISRDNSKNTVYLQMNSLRPEDTALYYCRSPRYADQWSAYDYWGQGTLVKVSSA
# notes: anti-IL-6 (17C04, 6B12), anti-HSA (ALB23002), anti-TNF-α (6C11), C-terminal alanine; produced in Pichia pastoris; also called ISVD construct F027201062; Nanobody F027201062
# Columns and labels:
# human IL27 = target: T1, human IL27; experiment: SPR (ProteOn XPR36), target immobilized
# human TL-1A = target: T2, human TL-1A; experiment: SPR (ProteOn XPR36), target immobilized
# human TRAIL = human TRAIL (human, UniProt P50591 114-281, limits assumed); experiment: SPR (ProteOn XPR36), target immobilized
# human CD40L = target: T3, human CD40L; experiment: SPR (ProteOn XPR36), target immobilized
# human LIGHT = target: T8, human LIGHT (human, UniProt O43557 74-240, limits assumed); experiment: SPR (ProteOn XPR36), target immobilized
# T8 construct: also called hLIGHT
# human TNFβ = target: T4, human TNFβ; experiment: SPR (ProteOn XPR36), target immobilized
# human IL23 = target: T5, human IL23; experiment: SPR (ProteOn XPR36), target immobilized
# human CNTF = target: T6, human CNTF; experiment: SPR (ProteOn XPR36), target immobilized
# [1] = target: T9, human membrane TNFα expressed on HEK293H cells (human, UniProt P01375 1-233); experiment: flow cytometry, HEK293H cells expressing human membrane TNFα, without HSA, 24 h
# T9 construct: whole, on cells; also called membrane expressed TNFα
# Procedure: Briefly, cells were fixed with 4% paraformaldehyde and 0.1% glutaraldehyde in PBS (to increase detection of membrane bound TNFα). […] Cells were washed 3 times and subsequently incubated with an anti-VHH mAb (ABH00119) for 30 min at 4° C., washed again, and incubated for 30 min at 4° C. with a goat anti-mouse or anti-human PE labeled antibody. Samples were washed and resuspended in FACS Buffer (D-PBS with 10% FBS and 0.05% sodium azide supplemented with 5 nM TOPRO3). Cell suspensions were then analyzed on an iQuescreener. EC50 values were calculated using GraphPad Prism.
# cyno TNF-α = cyno TNF-α (cynomolgus monkey, UniProt P79337 77-233); experiment: cell-based or functional assay
# cyno IL-6 = target: T7, cyno IL-6; experiment: cell-based or functional assay
# human IL-6 = human IL-6 (human, UniProt P05231 30-212); experiment: cell-based or functional assay
# human TNF-α = human TNF-α (human, UniProt P01375 77-233); experiment: cell-based or functional assay
# human TNF-α, sequence (P01375 77-233 limits assumed): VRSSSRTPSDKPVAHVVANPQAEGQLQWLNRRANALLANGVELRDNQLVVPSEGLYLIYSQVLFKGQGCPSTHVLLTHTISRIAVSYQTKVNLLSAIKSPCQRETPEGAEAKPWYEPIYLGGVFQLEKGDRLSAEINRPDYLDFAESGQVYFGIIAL
# T9 sequence (P01375 whole entry): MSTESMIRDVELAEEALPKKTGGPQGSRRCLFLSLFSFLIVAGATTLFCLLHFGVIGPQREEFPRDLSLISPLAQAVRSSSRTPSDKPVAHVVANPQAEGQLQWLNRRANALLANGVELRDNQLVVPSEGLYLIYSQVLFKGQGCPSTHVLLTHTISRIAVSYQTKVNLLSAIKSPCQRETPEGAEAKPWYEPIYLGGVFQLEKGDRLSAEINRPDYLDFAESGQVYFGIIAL
# cyno TNF-α, sequence (P79337 77-233 limits assumed): as the sequence (P01375 77-233 limits assumed) above, with L37V, R44T, T72N, R138L counted along it
# T8 sequence (O43557 74-240 limits assumed): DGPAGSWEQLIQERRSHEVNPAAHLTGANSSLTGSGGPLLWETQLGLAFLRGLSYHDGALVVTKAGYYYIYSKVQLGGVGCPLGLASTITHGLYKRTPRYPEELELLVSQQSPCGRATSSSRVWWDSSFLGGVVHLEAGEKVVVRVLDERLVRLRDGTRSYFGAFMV
# human TRAIL, sequence (P50591 114-281 limits assumed): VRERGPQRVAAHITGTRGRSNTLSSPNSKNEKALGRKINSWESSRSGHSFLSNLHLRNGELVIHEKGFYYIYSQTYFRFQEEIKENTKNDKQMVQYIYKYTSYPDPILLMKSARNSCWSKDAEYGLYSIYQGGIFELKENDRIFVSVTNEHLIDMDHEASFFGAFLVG
binder,measurement,setting,value
B1,binding result,human IL27,no binding (tested: 300 nM)
same,binding result,human TL-1A,no binding (tested: 300 nM)
same,binding result,human TRAIL,no binding (tested: 300 nM)
same,binding result,human CD40L,no binding (tested: 300 nM)
same,binding result,human LIGHT,no binding (tested: 300 nM)
same,binding result,human TNFβ,no binding (tested: 300 nM)
same,binding result,human IL23,no binding (tested: 300 nM)
same,binding result,human CNTF,no binding (tested: 300 nM)
same,EC50,[1],0.12 nM and 0.18 nM and 0.17 nM
same,"cyno TNF-α NFkb assay (IC50, pM)",cyno TNF-α,193 pM
same,"cyno IL-6 TF1 proliferation assay (IC50, pM)",cyno IL-6,65 pM
same,Ratio IC50 reference anti-IL-6 mAb1/Nb,human IL-6,2.4 ratio
same,"hIL-6 TF1 proliferation assay (IC50, pM)",human IL-6,134 pM
same,Ratio IC50 reference anti-TNF-α mAb/Nb,human TNF-α,0.67 ratio
same,"hTNF-α Nfkb assay (IC50, pM)",human TNF-α,98 pM
